The nature of this data set: soluble fraction after stress (log2 fold change); higher = more stays soluble; pooled small domains, quantitative proteomics. The following applies: stress: 75 degC.
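Further: 20 min heating vs room temperature control held 20 min.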

As for “HMAREQISVSQMVRDVRDGQVKNIEVLGQELRLSYADGSQKVTRKEEGQQALEILFASDIDLAALDLEVQ”, the “soluble fraction (log2)” value is -0.0792. The result for “HMARIDYHAMDSDDLSFSEGELLEIYDKPGSFWWKGRSLVSGDEGDIPS” reads -0.0708. On to “HMARKFQKDTGYLNKKERTWLLDFFPSLKKYLYTGAYIRSIIVVESNVTYTDKELPSNYTFTYKFA”, for which the “soluble fraction (log2)” value is -0.522. As for “HMARKISVEALGKYFPNSPMLAAAVAVTGVMKKDEFIHEMRASYKHKFAKKPEVIDGNMKALTMTFEA”, the “soluble fraction (log2)” value was 0.11.

Regarding “HMARNHYETLGVGRTATGDEIRKAYRSEAQKHHPDRGGDAERMQSLNEARDTLLDDQARAAYDQELDL”, the “soluble fraction (log2)” value came to 0.154. As for “HMARPLLSPREQDVLALIARGFSYSEVARLQAVTVHTIRTHIRNLYAKLSVHSKTEAVFEATRMGLLP”, the “soluble fraction (log2)” value is -1.94.

Consider “HMARRKRDIDSDINVKVFEHWLDNLDSASRESFSAFAEETFSPIQVYLYAKFLGYESSIIAVDHWVAVAYP”, for which the “soluble fraction (log2)” value amounted to 0.135. For the sequence “HMARSVAEFVERGRSGGSLERPKLQRMLEYIQDRPVDFVIVHKIDRLARNRADDAAITKTIRGAGAYLVST”, the “soluble fraction (log2)” value amounted to 0.1. On to “HMARTGSEELVGALATVREPLAPWGQVFVQGALWRARSADGGPVDAGQQVVVRAVEGLTLVVEPRD”, for which the “soluble fraction (log2)” value is -0.143. Consider “HMARYSMLEEQLLQLINKHGTMSTPKLVEATGAPRSTVTYQLRKLLESGTIERTQPARSPKQSYRIKS”, for which the “soluble fraction (log2)” value was -0.416. Take “HMASATGVVTAASLNVRSGAGTNYSVVNTLAKGTKVTVLNTADGWYEIEATVNNEKITGYVSATYIAMD”: the “soluble fraction (log2)” value is -0.538. Regarding “HMASLSRRELEVLELLALRLTVKEVAERLVISELTAKRHTSNIYQKLGVNRRRDALAAAQARGLLGAR”, the “soluble fraction (log2)” value was -3.18. The result for “HMASRSQTEIMHLLSSGLPKHELVTALQSLLGISKPTAYKYLSQDVSIAYDHMVKILEYPPFQRVLYQ” reads -1.93; that for “HMASSVKAPLPGVILDIKVKVGDTIKNGDTVVILEAMKMENNIHSDKDGVVKSIEVNKGDSVLEGATLLTI”, 0.33; that for “HMASVDDILDRFKQAAKVTTDADLAKVLGLSRQSIAAARLRAKIPASWFPKMSSLFNISTEWLYRG”, -1.18. On to “HMASVRPVAPPDPKTHTRLTYRIRRGDTLERIGRRYRVSIAEIQAWNTLRDPGDILAGQRLVIWIPTS”, for which the “soluble fraction (log2)” value was -2.33. Turning to “HMATAPQIRAIYALGSKLGINQNSREDNLHQLVYSITGKESIKGLTNYEAARVQSELANMERK”, the “soluble fraction (log2)” value is 0.323. The result for “HMATEPLQPRVEVLGSTLATTNGARIVGVYDMSGREVSATQLSKGVYIVKVTNGSVTATQKVFI” reads -0.477; that for “HMATETMGMIIRRLRREHGLTQEELAASIGVTAQAVSKWEKDLGMPDISQIVPLAGAFNVRTDVLFGLE”, -2.65; that for “HMATEWLSSKEAAQRLGVSAATLYAYVSRGLLRSEGSSGQRERRYRADDVAQLRRRREVGRKAESIAASTL”, -1.31. For the sequence “HMATHWHITPNPNNGKFLISGLMQDDSFHLMDASGQWLRQLRTVNQELDLDLQPGVYFLKDNSGSVMKFVV”, the “soluble fraction (log2)” value is -1.13. Next, “HMATIADILAEHKDKEGPLLPVLHDVQKMFGHVSEEAMREIAQALNLTRAEVYGVVSFYHDFRKEVE”: -1.46; “HMATIIGSIGIVTQKVGLTGVPGRVYVNNESWAAISANGKEIENDTQVIVVKIDGATLIIEKKG”: -2.22. Consider “HMATKEQIKRIYGLGAGLGIVGKDKDDMLHELIFSITGKDSVKQLDDSEFKAVQAELINRMKLA”, for which the “soluble fraction (log2)” value is 0.0958. In the case of “HMATLAVPNLMRLSQGEAMALIRLSGLSIGNVSIDSSMGSPRVIRQEPQASGGMLVLTQGDQVHLWLEGP”, the “soluble fraction (log2)” value is -3.75. For “HMATLQLPVPKITLYPGELIRSDHLTDQRFNARALYHSAVYKSREDIVGKVARRTLLPGQPIPVNALR”, the “soluble fraction (log2)” value is -1.07. As for “HMATPKRGFRKQLAPLVQSGTITREEAGELSRSSGDATALRTKIGELMKAGKLTRKEAGELYSDAFPENA”, the “soluble fraction (log2)” value came out at 0.145. Regarding “HMATPYISMAGIGKSFGPVHALKSVNLTVYPGEIHALLGENGAGKSTLMKVLSGIHEPTKGTITINNIN”, the “soluble fraction (log2)” value was found to be 0.458.

Turning to “HMATRAEQMAKTHQAILDTARELFLRNGYDATSTRDIANAIGITQPALYHHFKDKEVIFLAVI”, the “soluble fraction (log2)” value is -0.107.

Take “HMATSLTEQEKLIFGLLKKQSPIELSSLKEQAGLSNKKWDKAIKGLSTQQLAKVTKTENGLFVHLLQ”: the “soluble fraction (log2)” value was 0.00913.

For the sequence “HMATTAGIEKYLGSGLIKGIGPIYAKKIVRKFKEDTIRIIDEEPDRLLEVEGIGQKRLEIIKQAWQQQKE”, the “soluble fraction (log2)” value was -0.651. “HMATVHVDGIQYDFSSPEQAKEFAYKWAKKHNLTWEVHGETIHIK”: the “soluble fraction (log2)” value was -0.225.

Regarding “HMATYNEVLKRLIEERKRLGLSQQEMARLVHITQSNYSKVEKGLHRLSYEELKYLSKANVDIFYILT”, the “soluble fraction (log2)” value was -0.0786. Turning to “HMAVANEAIANINMKEVKQAIHNLPEIFKNPFLLYFDGYKYHEIAEMLDEPLGTIKSRIHFARKLLKSHI”, the “soluble fraction (log2)” value was -0.889. The result for “HMAVDVNKATAAELDSIKGIGPAISAKILEEKKKGGNFKDWNDLVTRVSGVGEANAAKFSSEGLTVGGAS” reads 0.0168.

Source of the values: the domain aggregation screens of Martell et al. (2025).
